Experimental data as given in publication PMC6344896, “HuR biological function involves RRM3-mediated dimerization and RNA binding by all three RRMs” (Nucleic Acids Research, 2018).

Target: the molecule itself
Assay: SAXS; concentration series in solution without RNA (Trx-RRM3 1.25–10 mg/ml; untagged full-length HuR WT and W261E, lowest 0.5 mg/ml); molecular weights from the Porod volume

B1: Trx-RRM3 (HuR RRM3 fused to the C-terminus of E. coli thioredoxin 1 via a GSAM linker) (domain or fragment, human, UniProt Q15717-1 243-326, looked up)
chain: GWCIFIYNLGQDADEGILWQMFGPFGAVTNVKVIRDFNTNKCKGFGFVTMTNYEEAAMAIASLNGYRLGDKILQVSFKTNKSHK
notes: Human HuR/ELAVL1 (NP_001410.2), third RNA recognition motif; Chain order: E. coli thioredoxin 1, Gly-Ser-Ala-Met, RRM3; Thioredoxin structure 2TRX was used for molecular replacement; also called RRM3-Trx; Trx-RRM3 fusion protein; source: E. coli BL21(DE3), purified; not shown: Trx (E. coli thioredoxin 1, uncleavable GSAM linker), N-terminal, kept
stoichiometry N: 2
